According to patent US20190002846A1, “POLYPEPTIDES HAVING DEMETHYLATING ACTIVITY” (Genencor International B.V., priority 2015, published 2019):

Experiments:
[1] = Methanol formation by GC, lignin; assay type: biochemical; conditions: enzyme 0.5 g/L, 25° C., approx. 48 h
Protocol: (§1) Model compounds syringic acid, syringol, 1,3-dimethoxybenzene and 3,5-dimethoxybenzoic acid (12 mM) were incubated with PPO7 from Example 2 (2% loading (w/w)) in 50 mM BisTris buffer pH 6.5 with 10 μM CuSO4. For syringic acid and syringol PPO2 from Example 2 was included as a control. Lignin and lignin-derived compounds (10 g/L) were incubated with PPO7 from Example 2 (0.5 g/L, 5% loading (w/w)). PPO2 from Example 2 was included as a control and incubated using the same conditions. Blanks prepared without the addition of enzyme were included. Incubations were performed in GC headspace vials with a total of 1 mL reaction volume at 25° C. for approximately 48 h while shaking. The reaction was stopped by adding 28 μL 1M HCl to lower the pH to ˜3. Samples were analyzed by GC for methanol formation. A calibration range of 0.23 to 11.5 mM methanol in buffer with HCl was included.

[2] = Methanol formation by GC, summary statement for lignin and lignin-derived compounds; assay type: biochemical; conditions: lignin and lignin-derived compounds 10 g/L, enzyme 0.5 g/L
Protocol: as §1

[3] = Methanol formation by GC, model compound; assay type: biochemical; conditions: for methanol: 2% enzyme loading, approx. 48 h
Protocol: as §1

[4] = target: T1, RAC incubated with LPMO9B (Thermothelomyces thermophilus, UniProt G2QCJ3); assay: RAC hydrolysis assay with LPMO9B and PPO2, PPO7 or AbTyr in the presence of sinapic acid or syringic acid; assay type: biochemical, Myceliophthora thermophila; conditions: LPMO9B 5 μg/ml alone = 100%, or with added enzyme, pH 5.0, 50° C., 24 h
T1 construct: made in house; host or cells: Myceliophthora thermophila C1 strain W1L#100.1Δpyr5ΔAlp1
T1 sequence (G2QCJ3 19-323): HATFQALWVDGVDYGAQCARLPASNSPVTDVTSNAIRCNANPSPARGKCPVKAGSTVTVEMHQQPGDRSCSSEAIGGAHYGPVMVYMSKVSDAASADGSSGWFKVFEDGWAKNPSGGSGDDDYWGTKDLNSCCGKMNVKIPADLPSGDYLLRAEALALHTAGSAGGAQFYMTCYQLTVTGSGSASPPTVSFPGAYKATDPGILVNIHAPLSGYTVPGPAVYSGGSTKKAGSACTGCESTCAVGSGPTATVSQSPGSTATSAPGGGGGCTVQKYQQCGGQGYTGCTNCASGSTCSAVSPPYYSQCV
Protocol: Reducing agents sinapic acid and syringic acid were obtained from Sigma-Aldrich (St. Louis, Mo., USA). RAC was prepared from Avicel by swelling it in phosphoric acid, (Zhang Y H P, Cui J, Lynd L R, & Kuang L R (2006) A transition from cellulose swelling to cellulose dissolution by o-phosphoric acid: Evidence from enzymatic hydrolysis and supramolecular structure. Biomacromolecules 7(2):644-648.). RAC was dissolved in 50 mM phospate buffer (pH 5.0) to a final concentration of 1.5 mg/ml. Copper chloride was added to a final concentration of 2.5 μM and dimethoxy containg reducing agent sinapic acid or syringic acid to a final concentration of 2 mM. LPMO9B (5 μg/ml) with or without PPO2 (5 μg/ml), PPO7 (5 μg/ml) or AbTyr (7.5 U/ml) were added and incubated for 24 h at 50° C. in a head-over-tail rotator in portions of 1 mL total volume (Stuart® rotator, Bibby Scientific LTD, Stone, UK) at 20 rpm. Products were analysed by HPAEC and MALDI-TOF MS as described previously. (Frommhagen M, Sforza S, Westphal A H, Visser J, Hinz S W, Koetsier M J et al. Discovery of the combined oxidative cleavage of plant xylan and cellulose by a new fungal polysaccharide monooxygenase. Biotechnology for Biofuels. 2015; 8:101. doi:10.1186/s13068-015-0284-1). The Activity denoted as “Activity*” represents total release of non-oxidized and C1-oxidized gluco-oligosaccharides from RAC incubated with LPMO9B in the presence of sinapic or syringic acid as a reducing agent and with addition of either AbTyr, PPO7 or PPO2. […] Standard deviations were less than 2%.

[5] = Conversion of syringic acid by purified PPO, difference absorbance spectra after 24 h; assay type: biochemical; conditions: 12 mM syringic acid, purified enzyme 0.048 g/L, pH 6.5, 10 μM CuSO4, room temperature
Protocol: Syringic acid (12 mM, 2.38 g/L) was incubated with PPO7 and PPO2 from Example 5 (0.048 g/L, 2% loading (w/w)) in 50 mM BisTris buffer pH 6.5 with 10 μM CuSO4. Blank prepared without the addition of enzyme was included. Incubations were performed in HPLC vials with a total of 750 μL reaction volume at room temperature for 24 h. The reaction was stopped by adding 21 μL 1M HCl to lower the pH to ˜3. Samples were filtrated and absorbance spectra were measured (230-1000 nm, 2 nm interval). […] It is to be noted that any change in absorbance in time indicates syringic acid conversion.

[6] = Conversion of syringic acid, sinapic acid and syringol by crude PPOs, absorbance at 400 nm; assay type: biochemical; conditions: 4 mM substrate, crude PPO 8.2 μg/mL, pH 6.0 or 7.0, 50 μM CuSO4, room temperature, 2, 22 and 118 h
Protocol: Syringic acid, sinapic acid and syringol (4 mM) were incubated with crude PPO2, 4, 6 and 7 from Example 5 in 100 mM BisTris buffer pH 6.0 or 7.0 with 50 μM CuSO4. Crude PPOs were dosed on target protein with a final concentration of 8.2 μg/mL. Substrate blanks prepared without the addition of enzyme and enzyme blanks without the addition of substrate were included. Incubations were performed in microtiterplates with a total reaction volume of 150 μL at room temperature for approximately 120 h. After 2, 22 and 118 h absorbance at 400 nm was measured.

B1: PPO7: Myceliophthora thermophila C1 polyphenoloxidase with demethylating activity, mature form SEQ ID NO: 45 (protein, listed as Myceliophthora thermophila)
chain: NPMHKRWKPNAPRNPDFPLDEVDKLEESIMPNVEAWMSKRPAKYSNCTLENAGIRREWSDLSVDERKEYISAVLCLQSKPSKIPEGEVPGALSRFDDFVATHMTMAGQLHSPTNLFAAHRYFIHAYEKALREECGYKGYQPYMNYDRYADDPLNTPLFDGSDSSMSGNGGPYNYSGIPQPFPKPYNLIPPAGGGGCVTEGPFRDMVVSLGPKGGLFHDIPRNPRADGLGSNPRCLRRDVNKYSARGARANYTYSAIMDNPDIDSFYNRYMGMPQLKGDPYPWGLHSSGHYLIGGDPGGDFYCSPGDPLFYFHHGMLDRVWWIWQMQDPENRVQAVPGTNTMPMPPLMAANLESEAAATTTHKRAVNVSDLVVDLGWTAPPVKLVDLNEQLGGLGGELCYIYV
With B1 the methanol ([1]; Corn stover BioLignin 10 g/L, blank 0) was 0.27 mM, the methanol ([1]; Wheat straw BioLignin 10 g/L, blank 0.10) was 0.28 mM and the “Methanol concentration compared to the blank (in words)” value [2] was “increased methanol concentration compared to the blank”. The “Methanol release (in words)” value ([3]; 1,3-dimethoxybenzene) was “no methanol release”, the methanol ([3]; 1,3-dimethoxybenzene 12 mM, 25° C., blank 0) was 0 mM and the “Methanol release (in words)” value ([3]; 3,5-dimethoxybenzoic acid) was “no methanol release”. For the same molecule, the methanol ([3]; 3,5-dimethoxybenzoic acid 12 mM, 25° C., blank 0) was 0 mM, the “Demethylation of syringic acid (in words)” value ([3]; Example 9 conditions) was “catalyzed the demethylation” and the “Demethylation of syringol (in words)” value ([3]; Example 9 conditions) was “catalyzed the demethylation”. The methanol ([3]; Syringic acid 12 mM, pH 6.5, 10 μM CuSO4, 25° C., blank 0) was 4.58 mM, the methanol ([3]; Syringol 12 mM, pH 6.5, 10 μM CuSO4, 25° C., blank 0.06) was 5.73 mM and the “Activity: total release of non-oxidized and C1-oxidized gluco-oligosaccharides from RAC” value ([4]; reducing agent sinapic acid 2 mM) was 195%. For the same molecule, the “Activity: total release of non-oxidized and C1-oxidized gluco-oligosaccharides from RAC” value ([4]; reducing agent syringic acid 2 mM) was 142%, the “Spectral change caused by reaction products” value [5] was “spectral increase between 300 and 500 nm” and the “Syringic acid conversion: negative peak in the difference absorbance spectra between 230 and 300 nm” value [5] was “more significant for PPO7 than for PPO2”. The “Conversion of substrates (absorbance at 400 nm)” value [6] was “able to convert syringic acid, sinapic acid and syringol”.
